# Laboratory results published in US11535650 (RA PHARMACEUTICALS, dated 2022).
# Starred links: 1 amine or outer side, 2 acyl side, 3 side chain; linkers in the order of their positions; H or OH if unused. Positions of bridges follow the written chain, without caps; N, C: chain ends. Non-standard residues stand in square brackets, D forms with d. Primed or numbered codes have the meaning given here. No end group written: not given here. Lys‑C8 = N-ε-caprylic lysine, CCCCCCCC(=O)NCCCC[C@H](N[*:1])C(=O)[*:2]; mXylyl(3) = bridging moiety between the two residues given in brackets; mXylyl(5) = bridging moiety between the two residues (meta-xylyl); mXylyl″ = bridging moiety between the two marked residues; mXylyl = bridging moiety between residues (mXylyl(i,j)); Ala(1H-tetrazol-5-yl) = N[C@@H](Cc1nnn[nH]1)C(=O)O; Trp(7-aza) = N[C@@H](Cc1c[nH]c2ncccc12)C(=O)O; NMePhe(4-F) = CN[C@@H](Cc1ccc(F)cc1)C(=O)O; mXylylene = c1cc(C[*:1])cc(C[*:2])c1; oXylylene = c1ccc(C[*:2])c(C[*:1])c1; pXylylene = c1cc(C[*:2])ccc1C[*:1]; NMeD = CN[C@@H](CC(=O)O)C(=O)O; Chg = N[C@H](C(=O)O)C1CCCCC1; Phg = N[C@H](C(=O)O)c1ccccc1; Tle = CC(C)(C)[C@H](N)C(=O)O; NMeS = CN[C@@H](CO)C(=O)O; NMeA = CN[C@@H](C)C(=O)O; Nva = CCC[C@H](N)C(=O)O; Sar = CNCC(=O)O
# Molecular target: human C5 protein (human, UniProt P01031 19-673; P01031 678-1676)
# Assay: cell-based or functional assay
row,Binder,"Avg. IC50, human hemolysis assay (complete human sera)"
1,Ac-CAERFCD[Tle]Y[Trp(7-aza)]EYP[Phg][Lys‑C8]-NH2 (linker 1-6 via mXylyl″) [R3166],17.5 nM
2,Ac-CVERFC[Ala(1H-tetrazol-5-yl)][Tle]Y[Trp(7-aza)]EYP[Chg][Nva]-NH2 (linker 1-6 via mXylyl(3)) [R3168],7.5 nM
3,Ac-C[Tle]Y[Trp(7-aza)]EY[NMeS]HC-NH2 (linker 1-9 via mXylyl) [R3016],> 13000 nM
4,Ac-CVERFC[NMeD][Tle]Y[Trp(7-aza)]EYP[Chg][Nva]-NH2 (linker 1-6 via mXylyl″) [R3172],12 nM
5,Ac-[Nva]CYEN[Tle]YCEYP[Phg][Nva]-NH2 (linker 2-8 via mXylyl) [R3017],> 100000 nM
6,Ac-[Nva]CYEN[Tle]Y[Trp(7-aza)]ECP[Phg][Nva]-NH2 (linker 2-10 via mXylyl) [R3018],> 5730 nM
7,Ac-[Nva]CYEN[Tle]Y[Trp(7-aza)]EY[Sar][Nva][NMeS]-NH2 (SMILES CCC[C@H](NC(C)=O)C(=O)N[C@@H](CS)C(=O)N[C@@H](Cc1ccc(O)cc1)C(=O)N[C@@H](CCC(=O)O)C(=O)N[C@@H](CC(N)=O)C(=O)N[C@H](C(=O)N[C@@H](Cc1ccc(O)cc1)C(=O)N[C@@H](Cc1c[nH]c2ncccc12)C(=O)N[C@@H](CCC(=O)O)C(=O)N[C@@H](Cc1ccc(O)cc1)C(=O)N(C)CC(=O)N[C@@H](CCC)C(=O)N(C)[C@@H](CO)C(N)=O)C(C)(C)C) [R3001],67.2 nM
8,Ac-[Nva]CYEN[Tle]Y[Trp(7-aza)]EYP[Phg][Nva]C-NH2 (linker 2-14 via mXylyl) [R3019],1320 nM
9,MCSERYCEVRWEY-NH2 (linker 2-7 via mXylyl) [R3020],24.6 nM
10,Ac-[Nva]C[Phg]T[Trp(7-aza)]EY[NMeS]HC[Nva]P[Nva]-NH2 (cysteine pairing not given here) [R3022],> 10200 nM
11,Ac-[Tle]Y[Trp(7-aza)]EYP[Phg][Nva]-NH2 (SMILES CCC[C@H](NC(=O)[C@@H](NC(=O)[C@@H]1CCCN1C(=O)[C@H](Cc1ccc(O)cc1)NC(=O)[C@H](CCC(=O)O)NC(=O)[C@H](Cc1c[nH]c2ncccc12)NC(=O)[C@H](Cc1ccc(O)cc1)NC(=O)[C@@H](NC(C)=O)C(C)(C)C)c1ccccc1)C(N)=O) [R3028],> 10000 nM
12,Ac-AC[Phg]T[Trp(7-aza)]EY[NMeS]HC[Nva]-NH2 (linker 2-10 via mXylyl) [R3031],1090 nM
13,Ac-[Nva]CAT[Trp(7-aza)]EY[NMeS]HC[Nva]-NH2 (linker 2-10 via mXylyl) [R3032],> 10000 nM
14,Ac-[Nva]C[Phg]A[Trp(7-aza)]EY[NMeS]HC[Nva]-NH2 (linker 2-10 via mXylyl) [R3033],131 nM
15,Ac-[Nva]C[Phg]TAEY[NMeS]HC[Nva]-NH2 (linker 2-10 via mXylyl) [R3034],> 50000 nM
16,Ac-[Nva]C[Phg]T[Trp(7-aza)]AY[NMeS]HC[Nva]-NH2 (linker 2-10 via mXylyl) [R3035],> 50000 nM
17,Ac-[Nva]C[Phg]T[Trp(7-aza)]EA[NMeS]HC[Nva]-NH2 (linker 2-10 via mXylyl) [R3036],> 50000 nM
18,Ac-[Nva]C[Phg]T[Trp(7-aza)]EY[NMeA]HC[Nva]-NH2 (linker 2-10 via mXylyl) [R3037],276 nM

row,Binder,"Avg. IC50, human hemolysis assay (complete human sera)"
1,Ac-[Nva]C[Phg]T[Trp(7-aza)]EY[NMeS]AC[Nva]-NH2 (linker 2-10 via mXylyl) [R3038],140 nM
2,Ac-[Nva]C[Phg]T[Trp(7-aza)]EY[NMeS]HCA-NH2 (linker 2-10 via mXylyl) [R3039],240 nM
3,Ac-[Nva]C[Phg]T[Trp(7-aza)]EY[NMeS]HC[Nva]P[Nva] (bridge 2-10) [R3040],> 100000 nM
4,Ac-YEN[Tle]YWEYP[Phg][Nva]-NH2 (SMILES CCC[C@H](NC(=O)[C@@H](NC(=O)[C@@H]1CCCN1C(=O)[C@H](Cc1ccc(O)cc1)NC(=O)[C@H](CCC(=O)O)NC(=O)[C@H](Cc1c[nH]c2ccccc12)NC(=O)[C@H](Cc1ccc(O)cc1)NC(=O)[C@@H](NC(=O)[C@H](CC(N)=O)NC(=O)[C@H](CCC(=O)O)NC(=O)[C@H](Cc1ccc(O)cc1)NC(C)=O)C(C)(C)C)c1ccccc1)C(N)=O) [R3041],71.3 nM
5,Ac-[Nva]C[Phg]T[Trp(7-aza)]EY[NMeS]HC[Nva]-NH2 (bridge 2-10) [R3042],> 100000 nM
6,MCVERFCDVYW-NH2 (linker 2-7 via mXylyl) [R3044],> 50000 nM
7,MCVERFCDVY-NH2 (linker 2-7 via mXylyl) [R3045],> 100000 nM
8,MCVERFCDV-NH2 (linker 2-7 via mXylyl(5)) [R3046],> 100000 nM
9,MCVERFC-NH2 (linker 2-7 via mXylyl(5)) [R3047],> 100000 nM
10,Ac-CVERFCDVYWEF-NH2 (linker 1-6 via mXylyl(5)) [R3048],19.3 nM
11,Ac-[Nva]CYNN[Tle]E[Trp(7-aza)]EYP[Phg][Tle]-NH2 (SMILES CCC[C@H](NC(C)=O)C(=O)N[C@@H](CS)C(=O)N[C@@H](Cc1ccc(O)cc1)C(=O)N[C@@H](CC(N)=O)C(=O)N[C@@H](CC(N)=O)C(=O)N[C@H](C(=O)N[C@@H](CCC(=O)O)C(=O)N[C@@H](Cc1c[nH]c2ncccc12)C(=O)N[C@@H](CCC(=O)O)C(=O)N[C@@H](Cc1ccc(O)cc1)C(=O)N1CCC[C@H]1C(=O)N[C@H](C(=O)N[C@H](C(N)=O)C(C)(C)C)c1ccccc1)C(C)(C)C) [R3004],53.5 nM
12,Ac-[Nva]C[Phg]T[Trp(7-aza)]EY[NMeS]HC[Nva]-NH2 (linker 2-10 via oXylylene) [R3049],> 3100 nM
13,[Nva]CY[NMeS][Phg][NMePhe(4-F)][NMeS]H[NMePhe(4-F)][Sar]C-NH2 (linker 2-11 via mXylyl(5)) [R3051],> 100000 nM
14,[Nva]CY[Tle][Phg]N[Sar]LC[Phg][NMeA]-NH2 (linker 2-9 via mXylyl(5)) [R3052],> 100000 nM
15,[Nva]CCN[Tle][Phg]C[Tle][NMeS]C[Tle]-NH2 (linker (positions not given here) via mXylylene; also: mXylyl-bicyclo: Cys pairing not given here) [R3053],> 100000 nM
16,MCVERFCD[Tle]Y[Trp(7-aza)]EYP[Phg][Nva]-NH2 (linker 2-7 via mXylyl(5)) [R3057],12.4 nM
17,Ac-[Nva]C[Chg]T[Trp(7-aza)]EY[NMeS]HC[Nva]-NH2 (linker 2-10 via pXylylene) [R3058],> 10000 nM
18,Ac-[Nva]CY[Trp(7-aza)][Sar][Tle][Nva][Trp(7-aza)]EYP[Phg]P-NH2 (SMILES CCC[C@H](NC(C)=O)C(=O)N[C@@H](CS)C(=O)N[C@@H](Cc1ccc(O)cc1)C(=O)N[C@@H](Cc1c[nH]c2ncccc12)C(=O)N(C)CC(=O)N[C@H](C(=O)N[C@@H](CCC)C(=O)N[C@@H](Cc1c[nH]c2ncccc12)C(=O)N[C@@H](CCC(=O)O)C(=O)N[C@@H](Cc1ccc(O)cc1)C(=O)N1CCC[C@H]1C(=O)N[C@H](C(=O)N1CCC[C@H]1C(N)=O)c1ccccc1)C(C)(C)C) [R3005],66.7 nM
